The values below come from patent US20140274782A1, “AFFINITY REAGENTS AND METHODS FOR DETECTION, PURIFICATION, AND PROTEOMIC ANALYSIS OF METHYLATED PROTEINS” (The Board of Trustees of the Leland Stanford Junior …, priority 2013, published 2014).

In one assay the target is T1, G9a and GLP (Homo sapiens, UniProt Q96KQ7+Q9H9B1).
T1 sequence (Q96KQ7 2-1210 limits assumed): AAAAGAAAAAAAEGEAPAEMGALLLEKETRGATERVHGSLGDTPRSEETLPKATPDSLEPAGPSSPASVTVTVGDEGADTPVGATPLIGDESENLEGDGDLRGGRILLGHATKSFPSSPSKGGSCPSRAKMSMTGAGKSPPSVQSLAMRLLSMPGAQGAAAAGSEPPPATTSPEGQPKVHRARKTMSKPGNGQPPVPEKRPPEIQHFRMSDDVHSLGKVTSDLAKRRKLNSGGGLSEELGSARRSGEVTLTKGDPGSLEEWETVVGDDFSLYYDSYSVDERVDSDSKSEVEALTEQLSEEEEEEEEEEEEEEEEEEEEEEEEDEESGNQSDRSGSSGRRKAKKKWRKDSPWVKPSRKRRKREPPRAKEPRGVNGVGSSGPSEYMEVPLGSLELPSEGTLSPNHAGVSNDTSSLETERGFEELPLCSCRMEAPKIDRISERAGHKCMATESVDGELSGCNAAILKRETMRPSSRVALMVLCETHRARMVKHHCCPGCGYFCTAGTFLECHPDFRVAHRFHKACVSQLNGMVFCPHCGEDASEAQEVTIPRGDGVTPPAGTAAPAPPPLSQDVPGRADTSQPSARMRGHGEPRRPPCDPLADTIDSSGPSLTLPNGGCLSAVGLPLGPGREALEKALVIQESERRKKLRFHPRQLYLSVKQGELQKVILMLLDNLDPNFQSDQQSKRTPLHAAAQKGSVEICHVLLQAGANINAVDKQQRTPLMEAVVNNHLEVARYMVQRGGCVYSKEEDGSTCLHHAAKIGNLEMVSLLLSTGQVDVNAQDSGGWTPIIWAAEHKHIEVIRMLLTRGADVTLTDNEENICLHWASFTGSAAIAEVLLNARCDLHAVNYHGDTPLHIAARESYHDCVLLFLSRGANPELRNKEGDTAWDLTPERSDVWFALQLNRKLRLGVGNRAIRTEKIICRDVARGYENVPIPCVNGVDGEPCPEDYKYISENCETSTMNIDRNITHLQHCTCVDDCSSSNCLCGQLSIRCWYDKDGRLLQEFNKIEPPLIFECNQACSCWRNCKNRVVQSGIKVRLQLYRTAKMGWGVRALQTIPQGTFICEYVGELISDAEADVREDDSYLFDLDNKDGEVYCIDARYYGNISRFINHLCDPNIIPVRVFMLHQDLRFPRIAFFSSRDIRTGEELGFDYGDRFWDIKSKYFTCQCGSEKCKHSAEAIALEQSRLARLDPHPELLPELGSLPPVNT
T1 sequence (Q9H9B1 2-1298 limits assumed): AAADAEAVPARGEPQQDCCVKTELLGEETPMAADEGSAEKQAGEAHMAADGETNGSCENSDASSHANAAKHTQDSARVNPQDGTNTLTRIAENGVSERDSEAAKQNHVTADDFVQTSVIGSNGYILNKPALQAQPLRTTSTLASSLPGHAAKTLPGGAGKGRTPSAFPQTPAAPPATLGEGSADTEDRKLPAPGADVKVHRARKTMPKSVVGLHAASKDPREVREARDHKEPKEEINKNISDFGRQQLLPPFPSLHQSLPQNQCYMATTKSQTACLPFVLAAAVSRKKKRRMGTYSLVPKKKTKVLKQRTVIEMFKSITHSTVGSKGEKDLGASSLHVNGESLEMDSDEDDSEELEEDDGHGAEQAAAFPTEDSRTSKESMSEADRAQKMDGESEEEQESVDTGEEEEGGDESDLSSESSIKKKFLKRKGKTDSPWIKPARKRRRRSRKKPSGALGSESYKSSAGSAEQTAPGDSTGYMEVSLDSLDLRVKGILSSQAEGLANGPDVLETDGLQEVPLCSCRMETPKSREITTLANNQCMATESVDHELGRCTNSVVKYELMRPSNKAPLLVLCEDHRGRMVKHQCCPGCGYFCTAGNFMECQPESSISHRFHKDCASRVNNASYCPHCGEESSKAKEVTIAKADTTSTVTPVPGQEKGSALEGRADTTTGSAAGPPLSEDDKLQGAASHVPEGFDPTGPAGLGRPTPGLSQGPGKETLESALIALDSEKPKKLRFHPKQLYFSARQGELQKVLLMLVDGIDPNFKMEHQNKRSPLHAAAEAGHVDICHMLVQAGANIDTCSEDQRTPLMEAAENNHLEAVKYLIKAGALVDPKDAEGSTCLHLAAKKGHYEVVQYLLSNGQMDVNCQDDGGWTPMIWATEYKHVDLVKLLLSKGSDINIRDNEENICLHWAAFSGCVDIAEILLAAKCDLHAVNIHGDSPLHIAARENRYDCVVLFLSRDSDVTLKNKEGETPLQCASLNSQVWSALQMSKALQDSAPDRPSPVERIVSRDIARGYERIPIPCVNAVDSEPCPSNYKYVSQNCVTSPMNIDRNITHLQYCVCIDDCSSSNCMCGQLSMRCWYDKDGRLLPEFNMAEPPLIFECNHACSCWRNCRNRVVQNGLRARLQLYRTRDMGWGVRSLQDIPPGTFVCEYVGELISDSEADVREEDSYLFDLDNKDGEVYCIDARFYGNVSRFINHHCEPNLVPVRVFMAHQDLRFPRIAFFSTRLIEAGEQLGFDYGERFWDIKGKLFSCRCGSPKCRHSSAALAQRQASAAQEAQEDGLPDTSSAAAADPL
Description: Triple SILAC pull-down after UNC0638 treatment of 293T cells, DMSO/UNC0638 ratio of protein captured by 3×MBT.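 For all read-outs here: mass spectrometry (Q-Exactive) SILAC quantitation, DMSO/UNC0638 ratio computed after subtracting 3×MBTD355N mutant pull-down background, only proteins with at least twofold 3×MBT over mutant signal considered.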 Format: cell-based. Details: endogenous in cells; host or cells: HEK 293T. Particulars: all values in log base 2; for Relative to UNC0638 UNC Heavy / Relative to UNC0638 UNC Light: SILAC ratio DMSO relative to UNC0638, pull-down with 3xMBT; for Relative to UNC0638 UNC Heavy: UNC0638 in heavy SILAC media; for Relative to UNC0638 UNC Light: UNC0638 in light SILAC media; for Relative to UNC0638 Average: average of UNC Light and UNC Heavy experiments.

In another assay the test system is 3×MBT domain of L3MBTL1. Description: Triple SILAC pull-down, 3xMBT/3xMBTD355N ratio (cytoplasmic, nuclear and chromatin fractions of 293T cells).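 For all read-outs here: proteins quantified with MaxQuant, requiring at least two unique peptides and quantification in both label directions, normalized to the mean of proteins from a digested loading control.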 The class given is binding, human. Particulars: SILAC ratio 3xMBT vs 3xMBTD355N pull-down, 293T cells, all values in log base 2; for 3xMBT/D355N UNC Heavy: experiment with UNC0638 in heavy SILAC media; for 3xMBT/D355N UNC Light: experiment with UNC0638 in light SILAC media.

B1: SMARCA1 (protein, UniProt P28370 1-1042, looked up)
SWI/SNF-related …: MEQDTAAVAATVAAADATATIVVIEDEQPGPSTSQEEGAAAAATEATAATEKGEKKKEKNVSSFQLKLAAKAPKSEKEMDPEYEEKMKADRAKRFEFLLKQTELFAHFIQPSAQKSPTSPLNMKLGRPRIKKDEKQSLISAGDYRHRRTEQEEDEELLSESRKTSNVCIRFEVSPSYVKGGPLRDYQIRGLNWLISLYENGVNGILADEMGLGKTLQTIALLGYLKHYRNIPGPHMVLVPKSTLHNWMNEFKRWVPSLRVICFVGDKDARAAFIRDEMMPGEWDVCVTSYEMVIKEKSVFKKFHWRYLVIDEAHRIKNEKSKLSEIVREFKSTNRLLLTGTPLQNNLHELWALLNFLLPDVFNSADDFDSWFDTKNCLGDQKLVERLHAVLKPFLLRRIKTDVEKSLPPKKEIKIYLGLSKMQREWYTKILMKDIDVLNSSGKMDKMRLLNILMQLRKCCNHPYLFDGAEPGPPYTTDEHIVSNSGKMVVLDKLLAKLKEQGSRVLIFSQMTRLLDILEDYCMWRGYEYCRLDGQTPHEEREEAIEAFNAPNSSKFIFMLSTRAGGLGINLASADVVILYDSDWNPQVDLQAMDRAHRIGQKKPVRVFRLITDNTVEERIVERAEIKLRLDSIVIQQGRLIDQQSNKLAKEEMLQMIRHGATHVFASKESELTDEDITTILERGEKKTAEMNERLQKMGESSLRNFRMDIEQSLYKFEGEDYREKQKLGMVEWIEPPKRERKANYAVDAYFREALRVSEPKIPKAPRPPKQPNVQDFQFFPPRLFELLEKEILYYRKTIGYKVPRNPDIPNPALAQREEQKKIDGAEPLTPEETEEKEKLLTQGFTNWTKRDFNQFIKANEKYGRDDIDNIAREVEGKSPEEVMEYSAVFWERCNELQDIEKIMAQIERGEARIQRRISIKKALDAKIARYKAPFHQLRIQYGTSKGKNYTEEEDRFLICMLHKMGFDRENVYEELRQCVRNAPQFRFDWFIKSRTAMEFQRRCNTLISLIEKENMEIEERERAEKKKRATKTPMVKFSAFS
With B1, in the assay with G9a and GLP, the “Relative to UNC0638 UNC Heavy” value is given as −0.35 log base 2, the “Relative to UNC0638 UNC Light” value stood at 0.18 log base 2 and the “Relative to UNC0638 Average” value is given as −0.09 log base 2. For the same molecule, in the assay with 3×MBT domain of L3MBTL1, the “3xMBT/D355N UNC Heavy” value came to 0.79 log base 2 and the “3xMBT/D355N UNC Light” value is 3.03 log base 2.

B2: YTHDC2 (protein, UniProt Q9H6S0 1-1430, looked up)
3'-5' RNA helicase YTHDC2: MSRPSSVSPRQPAPGGGGGGGPSPCGPGGGGRAKGLKDIRIDEEVKIAVNIALERFRYGDQREMEFPSSLTSTERAFIHRLSQSLGLVSKSKGKGANRYLTVKKKDGSETAHAMMTCNLTHNTKHAVRSLIQRFPVTNKERTELLPKTERGNVFAVEAENREMSKTSGRLNNGIPQIPVKRGESEFDSFRQSLPVFEKQEEIVKIIKENKVVLIVGETGSGKTTQIPQFLLDDCFKNGIPCRIFCTQPRRLAAIAVAERVAAERRERIGQTIGYQIRLESRVSPKTLLTFCTNGVLLRTLMAGDSTLSTVTHVIVDEVHERDRFSDFLLTKLRDLLQKHPTLKLILSSAALDVNLFIRYFGSCPVIYIQGRPFEVKEMFLEDILRTTGYTNKEMLKYKKEKQQEEKQQTTLTEWYSAQENSFKPESQRQRTVLNVTDEYDLLDDGGDAVFSQLTEKDVNCLEPWLIKEMDACLSDIWLHKDIDAFAQVFHLILTENVSVDYRHSETSATALMVAAGRGFASQVEQLISMGANVHSKASNGWMALDWAKHFGQTEIVDLLESYSATLEFGNLDESSLVQTNGSDLSAEDRELLKAYHHSFDDEKVDLDLIMHLLYNICHSCDAGAVLIFLPGYDEIVGLRDRILFDDKRFADSTHRYQVFMLHSNMQTSDQKKVLKNPPAGVRKIILSTNIAETSITVNDVVFVIDSGKVKEKSFDALNFVTMLKMVWISKASAIQRKGRAGRCRPGICFRLFSRLRFQNMLEFQTPELLRMPLQELCLHTKLLAPVNCPIADFLMKAPEPPPALIVRNAVQMLKTIDAMDTWEDLTELGYHLADLPVEPHLGKMVLCAVVLKCLDPILTIACTLAYRDPFVLPTQASQKRAAMLCRKRFTAGAFSDHMALLRAFQAWQKARSDGWERAFCEKNFLSQATMEIIIGMRTQLLGQLRASGFVRARGGGDIRDVNTNSENWAVVKAALVAGMYPNLVHVDRENLVLTGPKEKKVRFHPASVLSQPQYKKIPPANGQAAAIKALPTDWLIYDEMTRAHRIANIRCCSAVTPVTILVFCGPARLASNALQEPSSFRVDGIPNDSSDSEMEDKTTANLAALKLDEWLHFTLEPEAASLLLQLRQKWHSLFLRRMRAPSKPWSQVDEATIRAIIAVLSTEEQSAGLQQPSGIGQRPRPMSSEELPLASSWRSNNSRKSSADTEFSDECTTAERVLMKSPSPALHPPQKYKDRGILHPKRGTEDRSDQSSLKSTDSSSYPSPCASPSPPSSGKGSKSPSPRPNMPVRYFIMKSSNLRNLEISQQKGIWSTTPSNERKLNRAFWESSIVYLVFSVQGSGHFQGFSRMSSEIGREKSQDWGSAGLGGVFKVEWIRKESLPFQFAHHLLNPWNDNKKVQISRDGQELEPLVGEQLLQLWERLPLGEKNTTD
As to B2, in the assay with G9a and GLP, the “Relative to UNC0638 UNC Heavy” value is recorded as −0.10 log base 2, the “Relative to UNC0638 UNC Light” value is on record as −0.07 log base 2 and the “Relative to UNC0638 Average” value is given as −0.08 log base 2. In the assay with 3×MBT domain of L3MBTL1, the “3xMBT/D355N UNC Heavy” value was found to be 1.74 log base 2 and the “3xMBT/D355N UNC Light” value is 2.87 log base 2.
